This is an account of results in the supplement of paper PMC6755084.

For the first series, the system named is F1*sub RNA substrate (template-directed ligation). The series is described as follows: fraction ligated after 30 min (ligated reads / total reads); higher = more ligase activity; sequences stand for … in GAGACCGCAACTGAAAAGTTGT…AGTTCTGCACGTAGAAGCAAAAGGC
Particulars: 42 °C. In a few lines: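 Templates from an oligo pool were PCR-amplified, transcribed with T7 and gel-purified to give the ribozyme variants. Ligated and unligated products were separated on gel, reverse transcribed using barcoded primers, and read on a MiSeq. A quality filter of ≥20 was applied to core bases. Fraction ligated was taken as ligated reads as a share of all reads per variant.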
As for TTCACTTTGTAAGACACTTTGGATGGGTTGA [3d355], the fraction ligated is 0.747.

As for TTCATGTCGTAAGACACTTTGGATGGGTTGA [3d317], the fraction ligated is 0.468.

TTCATTGCGTAAGACACTTTGGATGGGTTGA [3d319] had a fraction ligated of 0.11.

TTCATTGTCGAAGACACTTTGGATGGGTTGA [3d322]: the fraction ligated stood at 0.197.

In turn, TTCATTGTCGTAAACACTTTGGATGGGTTGA [3d324] came in with a fraction ligated of 0.068.

For the sequence TTCATTGTCGTAAGAACTTTGGATGGGTTGA [3d326], the fraction ligated amounted to 0.149.

TTCATTGTCGTAAGACACTTGGATGGGTTGA [3d329] showed a fraction ligated of 0.453.

Consider TTCATTGTCGTAAGACACTTTGATGGGTTGA [3d330], for which the fraction ligated came out at 0.505.

As for TTCATTGTCGTAAGACACTTTGGAGGGTTGA [3d332], the fraction ligated is 0.175.

TTCATTGTCGTAAGACACTTTGGATGGGTTA [3d334] registered a fraction ligated of 0.0829.

Turning to TTCATTGTCGTAAGACACTTTGGATGGGTTG [3d335], the fraction ligated worked out at 0.285.

For TTCATTGTCGTAAGACACTTTGGATGGGTTGA [2d27], the fraction ligated worked out at 0.509.

In turn, TTCATTGTCGTAAGACACTTTGGATGGTTGA [3d333] gave a fraction ligated of 0.421.

The sequence TTCATTGTCGTAAGACACTTTGGTGGGTTGA [3d331] had a fraction ligated of 0.106.

TTCATTGTCGTAAGACATTTGGATGGGTTGA [3d328]: the fraction ligated turned out to be 0.5.

For the sequence TTCATTGTCGTAAGACCTTTGGATGGGTTGA [3d327], the fraction ligated came to 0.529.

TTCATTGTCGTAAGCACTTTGGATGGGTTGA [3d325] came in with a fraction ligated of 0.176.

As for TTCATTGTCGTAGACACTTTGGATGGGTTGA [3d323], the fraction ligated worked out at 0.271.

Consider TTCATTGTCTAAGACACTTTGGATGGGTTGA [3d321], for which the fraction ligated was 0.203.

TTCATTGTGTAAGACACTTTGGATGGGTTGA [3d320] registered a fraction ligated of 0.137.

On to TTCATTTCGTAAGACACTTTGGATGGGTTGA [3d318], for which the fraction ligated was determined as 0.104.

In turn, TTCCTGTCGTAAGACACTTTGGATGGGTTGA [3d298] displayed a fraction ligated of 0.746.

Regarding TTCCTTGCGTAAGACACTTTGGATGGGTTGA [3d300], the fraction ligated was found to be 0.779.

As for TTCCTTGTCGAAGACACTTTGGATGGGTTGA [3d303], the fraction ligated amounted to 0.796.

In turn, TTCCTTGTCGTAAACACTTTGGATGGGTTGA [3d305] yielded a fraction ligated of 0.786.

With TTCCTTGTCGTAAGAACTTTGGATGGGTTGA [3d307], the fraction ligated was determined as 0.765.

In turn, TTCCTTGTCGTAAGACACTTGGATGGGTTGA [3d310] yielded a fraction ligated of 0.776.

With TTCCTTGTCGTAAGACACTTTGATGGGTTGA [3d311], the fraction ligated amounted to 0.595.

Sequence TTCCTTGTCGTAAGACACTTTGGAGGGTTGA [3d313] registered a fraction ligated of 0.186.

TTCCTTGTCGTAAGACACTTTGGATGGGTTA [3d315] came in with a fraction ligated of 0.229.

Sequence TTCCTTGTCGTAAGACACTTTGGATGGGTTG [3d316] yielded a fraction ligated of 0.731.

Consider TTCCTTGTCGTAAGACACTTTGGATGGGTTGA [2d26], for which the fraction ligated amounted to 0.778.

The sequence TTCCTTGTCGTAAGACACTTTGGATGGTTGA [3d314] displayed a fraction ligated of 0.175.

With TTCCTTGTCGTAAGACACTTTGGTGGGTTGA [3d312], the fraction ligated is 0.204.

In the case of TTCCTTGTCGTAAGACATTTGGATGGGTTGA [3d309], the fraction ligated turned out to be 0.756.

With TTCCTTGTCGTAAGACCTTTGGATGGGTTGA [3d308], the fraction ligated worked out at 0.737.

The sequence TTCCTTGTCGTAAGCACTTTGGATGGGTTGA [3d306] yielded a fraction ligated of 0.772.

TTCCTTGTCGTAGACACTTTGGATGGGTTGA [3d304] came in with a fraction ligated of 0.77.

The sequence TTCCTTGTCTAAGACACTTTGGATGGGTTGA [3d302] displayed a fraction ligated of 0.78.

TTCCTTGTGTAAGACACTTTGGATGGGTTGA [3d301] returned a fraction ligated of 0.782.

Sequence TTCCTTTCGTAAGACACTTTGGATGGGTTGA [3d299] gave a fraction ligated of 0.753.

TTCTTGTCGTAAGACACTTTGGATGGGTTGA [3d277] came in with a fraction ligated of 0.765.

The test system is the same in the next series. Put plainly: fraction ligated after 30 min (ligated reads / total reads); higher = more ligase activity. Particulars: 42 °C. As to the method: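 Chip-synthesised pool of F1* ligase ribozyme variants (all single and double substitutions, single, double and triple deletions in the catalytic core and GAA bulge, plus designed variants) was transcribed with T7 and reacted as a pool with excess substrate F1*sub for 30 min at 42 C in 50 mM EPPS pH 8.5, 25 mM MgCl2. Ligated and unligated bands were separated by PAGE, barcoded by RT and deep sequenced; fraction ligated = ligated reads / total reads per variant, relative activity = FL / FL of wild type (0.826). Sequences are the DNA template of the ribozyme.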
The sequence “GAGACCGCAACTGAAAAGTTGTATCACTTGTCGTAAGACACTTTGGATGGGTTGGTTCTGCACGTAGAAGCAAAAGGC [3d276]” gave a fraction ligated of 0.00404.

In turn, “GAGACCGCAACTGAAAAGTTGTTACACTTGTCGTAAGACACTTTGGATGGGTTGGTTCTGCACGTAGAAGCAAAAGGC [3d737]” registered a fraction ligated of 0.00325.

Take “GAGACCGCAACTGAAAAGTTGTTATACTTGTCGTAAGACACTTTGGATGGGTTGGTTCTGCACGTAGAAGCAAAAGGC [3d948]”: the fraction ligated turned out to be 0.

Consider “GAGACCGCAACTGAAAAGTTGTTATCACTGTCGTAAGACACTTTGGATGGGTTGGTTCTGCACGTAGAAGCAAAAGGC [3d1463]”, for which the fraction ligated amounted to 0.0111.

Turning to “GAGACCGCAACTGAAAAGTTGTTATCACTTGCGTAAGACACTTTGGATGGGTTGGTTCTGCACGTAGAAGCAAAAGGC [3d1704]”, the fraction ligated amounted to 0.0839.

Turning to “GAGACCGCAACTGAAAAGTTGTTATCACTTGTCGAAGACACTTTGGATGGGTTGGTTCTGCACGTAGAAGCAAAAGGC [3d1980]”, the fraction ligated stood at 0.102.

“GAGACCGCAACTGAAAAGTTGTTATCACTTGTCGTAAACACTTTGGATGGGTTGGTTCTGCACGTAGAAGCAAAAGGC [3d2104]” returned a fraction ligated of 0.0572.

“GAGACCGCAACTGAAAAGTTGTTATCACTTGTCGTAAGAACTTTGGATGGGTTGGTTCTGCACGTAGAAGCAAAAGGC [3d2182]” showed a fraction ligated of 0.0451.

Consider “GAGACCGCAACTGAAAAGTTGTTATCACTTGTCGTAAGACACTTGGATGGGTTGGTTCTGCACGTAGAAGCAAAAGGC [3d2254]”, for which the fraction ligated stood at 0.00633.

Regarding “GAGACCGCAACTGAAAAGTTGTTATCACTTGTCGTAAGACACTTTGATGGGTTGGTTCTGCACGTAGAAGCAAAAGGC [3d2270]”, the fraction ligated worked out at 0.00433.

The sequence “GAGACCGCAACTGAAAAGTTGTTATCACTTGTCGTAAGACACTTTGGAGGGTTGGTTCTGCACGTAGAAGCAAAAGGC [3d2280]” returned a fraction ligated of 0.0051.

As for “GAGACCGCAACTGAAAAGTTGTTATCACTTGTCGTAAGACACTTTGGATGGGTTCGTTCTGCACGTAGAAGCAAAAGGC [s80]”, the fraction ligated is 0.0169.

In turn, “GAGACCGCAACTGAAAAGTTGTTATCACTTGTCGTAAGACACTTTGGATGGGTTGGTTCTGCACGTAGAAGCAAAAGGC [2d299]” showed a fraction ligated of 0.02.

Regarding “GAGACCGCAACTGAAAAGTTGTTATCACTTGTCGTAAGACACTTTGGATGGGTTGTTCTGCACGTAGAAGCAAAAGGC [3d2283]”, the fraction ligated amounted to 0.021.

Consider “GAGACCGCAACTGAAAAGTTGTTATCACTTGTCGTAAGACACTTTGGATGGGTTTGTTCTGCACGTAGAAGCAAAAGGC [s81]”, for which the fraction ligated was determined as 0.0148.

“GAGACCGCAACTGAAAAGTTGTTATCACTTGTCGTAAGACACTTTGGATGGTTGGTTCTGCACGTAGAAGCAAAAGGC [3d2282]” displayed a fraction ligated of 0.0129.

In turn, “GAGACCGCAACTGAAAAGTTGTTATCACTTGTCGTAAGACACTTTGGTGGGTTGGTTCTGCACGTAGAAGCAAAAGGC [3d2276]” had a fraction ligated of 0.00831.

In the case of “GAGACCGCAACTGAAAAGTTGTTATCACTTGTCGTAAGACATTTGGATGGGTTGGTTCTGCACGTAGAAGCAAAAGGC [3d2230]”, the fraction ligated amounted to 0.00375.

“GAGACCGCAACTGAAAAGTTGTTATCACTTGTCGTAAGACCTTTGGATGGGTTGGTTCTGCACGTAGAAGCAAAAGGC [3d2206]” came in with a fraction ligated of 0.0611.

Consider “GAGACCGCAACTGAAAAGTTGTTATCACTTGTCGTAAGCACTTTGGATGGGTTGGTTCTGCACGTAGAAGCAAAAGGC [3d2151]”, for which the fraction ligated was 0.116.

Take “GAGACCGCAACTGAAAAGTTGTTATCACTTGTCGTAGACACTTTGGATGGGTTGGTTCTGCACGTAGAAGCAAAAGGC [3d2058]”: the fraction ligated is 0.0726.

The sequence “GAGACCGCAACTGAAAAGTTGTTATCACTTGTCTAAGACACTTTGGATGGGTTGGTTCTGCACGTAGAAGCAAAAGGC [3d1901]” yielded a fraction ligated of 0.0966.

For the sequence “GAGACCGCAACTGAAAAGTTGTTATCACTTGTGTAAGACACTTTGGATGGGTTGGTTCTGCACGTAGAAGCAAAAGGC [3d1809]”, the fraction ligated worked out at 0.0204.

The sequence “GAGACCGCAACTGAAAAGTTGTTATCACTTTCGTAAGACACTTTGGATGGGTTGGTTCTGCACGTAGAAGCAAAAGGC [3d1584]” showed a fraction ligated of 0.0193.

The sequence “GAGACCGCAACTGAAAAGTTGTTATCATTGTCGTAAGACACTTTGGATGGGTTGGTTCTGCACGTAGAAGCAAAAGGC [3d1292]” came in with a fraction ligated of 0.00677.

With “GAGACCGCAACTGAAAAGTTGTTATCCTTGTCGTAAGACACTTTGGATGGGTTGGTTCTGCACGTAGAAGCAAAAGGC [3d1120]”, the fraction ligated was determined as 0.00301.

Regarding “GAGACCGCAACTGAAAAGTTGTTTCACTTGTCGTAAGACACTTTGGATGGGTTGGTTCTGCACGTAGAAGCAAAAGGC [3d507]”, the fraction ligated was 0.00164.
